In US7582460B2 (Wacker Chemie AG, priority 2003, dated 2009):
Numbering of substitutions follows the chain as printed. Names and notes keep the numbering of the source.

B1: serA45: E. coli PGD variant with replacement G349I (protein, UniProt P0A9T0 2-410, looked up, variant G349I)
D-3-phosphoglycerate …: AKVSLEKDKIKFLLVEGVHQKALESLRAAGYTNIEFHKGALDDEQLKESIRDAHFIGLRSRTHLTEDVINAAEKLVAIGCFCIGTNQVDLDAAAKRGIPVFNAPFSNTRSVAELVIGELLLLLRGVPEANAKAHRGVWNKLAAGSFEARGKKLGIIGYGHIGTQLGILAESLGMYVYFYDIENKLPLGNATQVQHLSDLLNMSDVVSLHVPENPSTKNMMGAKEISLMKPGSLLINASRGTVVDIPALCDALASKHLAGAAIDVFPTEPATNSDPFTSPLCEFDNVLLTPHIGGSTQEAQENIGLEVAGKLIKYSDNGSTLSAVNFPEVSLPLHGGRRLMHIHENRPIVLTALNKIFAEQGVNIAAQYLQTSAQMGYVVIDIEADEDVAEKALQAMKAIPGTIRARLLY
B2: serA212: E. coli PGD variant with replacement T372F (protein, UniProt P0A9T0 2-410, looked up, variant T372F)
D-3-phosphoglycerate …: B1 D-3-phosphoglycerate … with I348G, T371F
B3: serA47: E. coli PGD variant with replacement G349E (protein, UniProt P0A9T0 2-410, looked up, variant G349E)
D-3-phosphoglycerate …: B1 D-3-phosphoglycerate … with I348E
B4: serA218: E. coli PGD variant with replacement T372N (protein, UniProt P0A9T0 2-410, looked up, variant T372N)
D-3-phosphoglycerate …: B1 D-3-phosphoglycerate … with I348G, T371N
B5: serA208: E. coli PGD variant with replacement T372H (protein, UniProt P0A9T0 2-410, looked up, variant T372H)
D-3-phosphoglycerate …: B1 D-3-phosphoglycerate … with I348G, T371H
B6: serA210: E. coli PGD variant with replacement T372W (protein, UniProt P0A9T0 2-410, looked up, variant T372W)
D-3-phosphoglycerate …: B1 D-3-phosphoglycerate … with I348G, T371W
B7: serA221: E. coli PGD variant with replacement T372Q (protein, UniProt P0A9T0 2-410, looked up, variant T372Q)
D-3-phosphoglycerate …: B1 D-3-phosphoglycerate … with I348G, T371Q
B8: serA20: E. coli PGD variant with replacement T372I (protein, UniProt P0A9T0 2-410, looked up, variant T372I)
D-3-phosphoglycerate …: B1 D-3-phosphoglycerate … with I348G, T371I
B9: serA214: E. coli PGD variant with replacement T372A (protein, UniProt P0A9T0 2-410, looked up, variant T372A)
D-3-phosphoglycerate …: B1 D-3-phosphoglycerate … with I348G, T371A
B10: serA231: E. coli PGD variant with replacement T372C (protein, UniProt P0A9T0 2-410, looked up, variant T372C)
D-3-phosphoglycerate …: B1 D-3-phosphoglycerate … with I348G, T371C
B11: serA11: E. coli PGD variant with replacement T372Y (protein, UniProt P0A9T0 2-410, looked up, variant T372Y)
D-3-phosphoglycerate …: B1 D-3-phosphoglycerate … with I348G, T371Y
B12: serA220: E. coli PGD variant with replacement T372S (protein, UniProt P0A9T0 2-410, looked up, variant T372S)
D-3-phosphoglycerate …: B1 D-3-phosphoglycerate … with I348G, T371S
B13: serA222: E. coli PGD variant with replacement T372V (protein, UniProt P0A9T0 2-410, looked up, variant T372V)
D-3-phosphoglycerate …: B1 D-3-phosphoglycerate … with I348G, T371V
B14: serA219: E. coli PGD variant with replacement T372G (protein, UniProt P0A9T0 2-410, looked up, variant T372G)
D-3-phosphoglycerate …: B1 D-3-phosphoglycerate … with I348G, T371G
B15: serA226: E. coli PGD variant with replacement T372L (protein, UniProt P0A9T0 2-410, looked up, variant T372L)
D-3-phosphoglycerate …: B1 D-3-phosphoglycerate … with I348G, T371L
B16: serA228: E. coli PGD variant with replacement T372M (protein, UniProt P0A9T0 2-410, looked up, variant T372M)
D-3-phosphoglycerate …: B1 D-3-phosphoglycerate … with I348G, T371M
B17: serA46: E. coli PGD variant with replacement G349M (protein, UniProt P0A9T0 2-410, looked up, variant G349M)
D-3-phosphoglycerate …: B1 D-3-phosphoglycerate … with I348M

test system: 3-phosphoglycerate dehydrogenase (PGD); experiment: PGD enzyme activity in crude extracts (McKitrick and Pizer test); assay type: biochemical, Escherichia coli; conditions: crude extract of strain expressing plasmid-encoded serA allele; backward reaction, NADH oxidation at 340 nm
Description: (§1) For example, the PGD activity can be determined in analogy with the method described by McKitrick and Pizer (1980, J. Bacteriol. 141:235-245). The backward reaction is used to measure the enzyme activity in an assay sample which contains phosphohydroxypyruvate and NADH/H^+. The reaction is started by adding enzyme and is monitored in a spectrophotometer by way of the decrease in extinction at 340 nm which is caused by oxidation of the NADH/H^+.
(§2) At an optical density of 1.0, serA expression was in each case induced by adding 0.4 mM […] and the culture was incubated for a further 3 hours. The cells were subsequently harvested by centrifugation, washed and resuspended in 2 ml of buffer (100 mM K-phosphate, pH 7.0; 10 mM MgCl2; 1 mM dithiothreitol). The cells were disrupted using a French press (Spectronic Instruments, Inc. Rochester, N.Y., USA) at a pressure of 18 000 psi. The crude extracts were clarified by centrifugation at 30 000 g and PGD activity was determined using the McKitrick and Pizer test (1980, J. Bacteriol. 141:235-245).

**Q.** For B1, which Activity is on record?
**A.** The Activity was 0.05 units/mg.

**Q.** B2 was tested. Which Activity did it give?
**A.** Its Activity is 0.05 units/mg.

**Q.** With B3 as the molecule, how does the Activity read?
**A.** Its Activity is 0.05 units/mg.

**Q.** For B4, which Activity is on record?
**A.** Its Activity is 0.05 units/mg.

**Q.** For B5, which Activity is on record?
**A.** The Activity was 0.05 units/mg.

**Q.** Which Activity does the source give for B6 here?
**A.** The Activity was 0.04 units/mg.

**Q.** Which Activity does the source give for B7 here?
**A.** Its Activity is 0.05 units/mg.

**Q.** How did the Activity turn out when B8 was run?
**A.** Its Activity is 0.05 units/mg.

**Q.** For B9, which Activity is on record?
**A.** The Activity was 0.04 units/mg.

**Q.** Which Activity does the source give for B10 here?
**A.** The Activity was 0.02 units/mg.

**Q.** B11 was tested. Which Activity did it give?
**A.** The Activity was 0.05 units/mg.

**Q.** B12 was tested. Which Activity did it give?
**A.** The Activity was 0.05 units/mg.

**Q.** B13 was tested. Which Activity did it give?
**A.** Its Activity is 0.05 units/mg.

**Q.** B14 was tested. Which Activity did it give?
**A.** The Activity was 0.05 units/mg.

**Q.** For B15, which Activity is on record?
**A.** The Activity was 0.04 units/mg.

**Q.** With B16 as the molecule, how does the Activity read?
**A.** Its Activity is 0.03 units/mg.

**Q.** With B17 as the molecule, how does the Activity read?
**A.** Its Activity is 0.05 units/mg.

biological target: 3-phosphoglycerate dehydrogenase (PGD); experiment: Inhibition of PGD activity by L-serine, inhibitor constant Ki; assay type: biochemical, Escherichia coli; conditions: Ki = inhibitor concentration at which activity is 50% of activity without inhibitor
Description: as §1, §2

**Q.** For B1, which Ki is on record?
**A.** The Ki was 5 mM.

**Q.** B2 was tested. Which Ki did it give?
**A.** Its Ki is 60 mM.

**Q.** How did the Ki turn out when B3 was run?
**A.** Its Ki is 20 mM.

**Q.** B4 was tested. Which Ki did it give?
**A.** The Ki was 100 mM.

**Q.** How did the Ki turn out when B5 was run?
**A.** Its Ki is 80 mM.

**Q.** With B6 as the molecule, how does the Ki read?
**A.** The Ki was 60 mM.

**Q.** B7 was tested. Which Ki did it give?
**A.** Its Ki is 100 mM.

**Q.** Which Ki does the source give for B8 here?
**A.** The Ki was 40 mM.

**Q.** For B9, which Ki is on record?
**A.** The Ki was 10 mM.

**Q.** How did the Ki turn out when B10 was run?
**A.** Its Ki is 3 mM.

**Q.** Which Ki does the source give for B11 here?
**A.** Its Ki is 35 mM.

**Q.** Which Ki does the source give for B12 here?
**A.** The Ki was 1 mM.

**Q.** B13 was tested. Which Ki did it give?
**A.** The Ki was 40 mM.

**Q.** Which Ki does the source give for B14 here?
**A.** Its Ki is 8 mM.

**Q.** For B15, which Ki is on record?
**A.** The Ki was 40 mM.

**Q.** B16 was tested. Which Ki did it give?
**A.** Its Ki is 60 mM.

**Q.** With B17 as the molecule, how does the Ki read?
**A.** Its Ki is 1 mM.
